Source: publication PMC4178060, “Recombinant p35 from Bacteria Can Form Interleukin (IL-)12, but Not IL-35” (PLoS ONE, 2014)

T1: p40_(C197A) (murine p40, flag-tagged) (mouse) (UniProt P43432)
T1 sequence: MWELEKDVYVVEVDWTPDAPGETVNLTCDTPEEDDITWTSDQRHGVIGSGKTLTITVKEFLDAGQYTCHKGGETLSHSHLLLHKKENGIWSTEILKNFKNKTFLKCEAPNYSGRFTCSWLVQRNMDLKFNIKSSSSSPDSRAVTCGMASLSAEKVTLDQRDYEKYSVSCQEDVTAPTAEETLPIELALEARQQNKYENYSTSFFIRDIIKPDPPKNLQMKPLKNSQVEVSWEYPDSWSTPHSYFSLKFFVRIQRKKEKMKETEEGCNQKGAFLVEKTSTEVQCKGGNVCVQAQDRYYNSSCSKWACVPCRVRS


Assays:
[1] = target: the molecule itself; assay: non-reducing SDS-PAGE with Western blot; 20 µl conditioned supernatant of transiently transfected HEK293 cells separated by SDS-PAGE under non-reducing conditions; flag-specific antibody; disulfide-linked dimer
[2] = target: T1, p40_(C197A) (murine p40, flag-tagged) (mouse)

biological activity of IL-12 reconstituted with bacterially expressed p35, compared to IL-12 (Ba/F3-gp130-IL-12Rβ1-IL-12Rβ2 cells) (fold less active) [2]	Binder	stoichiometry N [1]
	p40 wildtype (murine p40, flag-tagged) (natural protein, mouse, UniProt P43432 23-335, looked up, murine p40 (IL-12 subunit beta); The supernatant holds monomer and disulfide-linked dimer; also called mp40; IL-12p40; source: HEK293, transiently transfected, conditioned supernatant) MWELEKDVYVVEVDWTPDAPGETVNLTCDTPEEDDITWTSDQRHGVIGSGKTLTITVKEFLDAGQYTCHKGGETLSHSHLLLHKKENGIWSTEILKNFKNKTFLKCEAPNYSGRFTCSWLVQRNMDLKFNIKSSSSSPDSRAVTCGMASLSAEKVTLDQRDYEKYSVSCQEDVTCPTAEETLPIELALEARQQNKYENYSTSFFIRDIIKPDPPKNLQMKPLKNSQVEVSWEYPDSWSTPHSYFSLKFFVRIQRKKEKMKETEEGCNQKGAFLVEKTSTEVQCKGGNVCVQAQDRYYNSSCSKWACVPCRVRS	2
> 100	recombinant murine p35 from bacteria (p35bac) (natural protein) RVIPVSGPARCLSQSRNLLKTTDDMVKTAREKLKHYSCTAEDIDHEDITRDQTSTLKTCLPLELHKNESCLATRETSSTTRGSCLPPQKTSLMMTLCLGSIYEDLKMYQTEFQAINAALQNHNHQQIILDKGMLVAIDELMQSLNHNGETLRQKPPVGEADPYRVKMKLCILLHAFSTRVVTINRVMGYLSSA	
